Target: the molecule itself
Test: SEC

B1: PAN subcomplex I fragment (residues 74-150), coiled-coil OB-fold domain (domain or fragment, Methanocaldococcus jannaschii, UniProt Q58576 74-150, looked up)
chain: MKENEILRRELDRMRVPPLIVGTVVDKVGERKVVVKSSTGPSFLVNVSHFVNPDDLAPGKRVCLNQQTLTVVDVLPE
modifications: selenomethionine (in the crystals used for MAD phasing and refinement)
stoichiometry N: 6

B2: PAN nucleotidase domain (residues 155-430) (domain or fragment, Methanocaldococcus jannaschii, UniProt Q58576 155-430, looked up)
chain: RAKAMEVDERPNVRYEDIGGLEKQMQEIREVVELPLKHPELFEKVGIEPPKGILLYGPPGTGKTLLAKAVATETNATFIRVVGSELVKKFIGEGASLVKDIFKLAKEKAPSIIFIDEIDAIAAKRTDALTGGDREVQRTLMQLLAEMDGFDARGDVKIIGATNRPDILDPAILRPGRFDRIIEVPAPDEKGRLEILKIHTRKMNLAEDVNLEEIAKMTEGCVGAELKAICTEAGMNAIRELRDYVTMDDFRKAVEKIMEKKKVKVKEPAHLDVLYR
stoichiometry N: 6

From publication PMC3268689 (Molecular Cell, 2009)
